Experimental findings from patent US20160102323, “A LAGLIDADG HOMING ENDONUCLEASE CLEAVING THE C-C CHEMOKINE RECEPTOR TYPE-5 (CCR5) GENE AND USES THEREOF” (CELLECTIS, published 2016) are described below.

Common to all, as to assay: flow; yeast surface display titration; unit as printed (uM)
Data set [1] addresses T1, CCR5_S02_1F5 I-OnuI variant (artificial (I-OnuI derived)).
T1 chain: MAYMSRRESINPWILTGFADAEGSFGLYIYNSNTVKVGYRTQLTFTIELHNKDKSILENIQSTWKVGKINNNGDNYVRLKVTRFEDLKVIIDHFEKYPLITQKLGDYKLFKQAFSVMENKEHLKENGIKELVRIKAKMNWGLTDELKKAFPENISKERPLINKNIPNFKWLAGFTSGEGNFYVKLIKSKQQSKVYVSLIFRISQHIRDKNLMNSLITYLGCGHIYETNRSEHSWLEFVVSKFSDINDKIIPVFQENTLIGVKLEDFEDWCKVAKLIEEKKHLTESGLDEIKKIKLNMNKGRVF
The note with it: label: Alexa Fluor 647 / biotin in cleavage assay. Here is the method:
(§1) The LHEs containing the engineered DNA recognition interfaces for the CCR5_S02 (SEQ ID NO: 3) and CCR5_S08 (SEQ ID NO: 5) targets were tested for affinity, specificity, and toxicity characteristics. Affinity was tested by independently incubating yeast displaying the CCR5_S02_1F5 variant, (SEQ ID NO: 09 encoding SEQ ID NO: 10), and the CCR5_S08_1B6 variant (SEQ ID NO: 11 encoding SEQ ID NO: 12), with DNA substrates containing their target sequences at various concentrations. See FIG. 4 showing the affinity properties of these two variants relative to the wild-type I-OnuI protein. […] Specificity was tested by analyzing the relative ability of each LHE to cleave target sequences containing each of the three alternate DNA base pairs at each position along the substrate. See FIG. 5 illustrating the specificity profile of the CCR5_S02_1F5 and CCR5_S08_1B6 variants. […] Toxicity was analyzed by in vitro transcribing each LHE into mRNA and transfecting primary human T cells by electroporation, followed by flow cytometry analysis of the survival of the cells relative to transfection with a control mRNA encoding a blue fluorescent protein (BFP). See FIG. 6 showing flow cytometry analysis of primary human T cells after treatment with the CCR5_S02_1F5 and CCR5_S08_1B6 variants.

The target of data set [2] is T2, CCR5_S08_1B6 I-OnuI variant (artificial (I-OnuI derived)).
T2 chain: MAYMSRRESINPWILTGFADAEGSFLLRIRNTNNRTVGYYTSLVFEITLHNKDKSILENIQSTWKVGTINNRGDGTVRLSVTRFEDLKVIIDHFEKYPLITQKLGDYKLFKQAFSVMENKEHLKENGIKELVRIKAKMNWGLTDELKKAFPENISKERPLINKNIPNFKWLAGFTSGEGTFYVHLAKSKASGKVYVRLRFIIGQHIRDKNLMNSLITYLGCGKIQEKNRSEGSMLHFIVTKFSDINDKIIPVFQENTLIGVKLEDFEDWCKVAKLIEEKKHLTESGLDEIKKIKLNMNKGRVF
The note with it: label: Alexa Fluor 647 / biotin in cleavage assay. Here is the method: as §1

The target of the next data set is T3, I-OnuI (wild type) (Ophiostoma novo-ulmi).
T3 chain: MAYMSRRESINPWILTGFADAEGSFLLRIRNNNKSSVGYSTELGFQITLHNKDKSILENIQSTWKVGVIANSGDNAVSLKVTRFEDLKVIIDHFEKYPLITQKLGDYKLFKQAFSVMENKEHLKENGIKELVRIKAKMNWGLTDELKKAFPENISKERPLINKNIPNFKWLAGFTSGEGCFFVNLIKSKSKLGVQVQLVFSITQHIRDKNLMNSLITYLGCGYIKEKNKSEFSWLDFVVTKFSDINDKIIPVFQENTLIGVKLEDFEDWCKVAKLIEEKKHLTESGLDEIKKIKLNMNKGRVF
The note with it: label: fluorescent dye. On the procedure: as §1

B1: CCR5_S02 target (dsDNA)
DNA 1: ATGAAGAAGATTCCAGAGAAGA
DNA 2: TCTTCTCTGGAATCTTCTTCAT
Consider B1, for which, in data set [1], the Kd is ~35 µM.

B2: CCR5_S08 target (dsDNA)
DNA 1: CTTCCAGGAATTCTTTGGCCTG
DNA 2: CAGGCCAAAGAATTCCTGGAAG
Turning to B2, the Kd in data set [2] is ~20 µM.

B3: I-OnuI native target (dsDNA)
DNA 1: TTTCCACTTATTCAACCTTTTA
DNA 2: TAAAAGGTTGAATAAGTGGAAA
Turning to B3, the Kd with I-OnuI (wild type) was ~80 µM.

Broadly, the Kd is a measure of binding affinity in units of concentration.
